Data as given in patent US20230192831A1 (published 2023).

Target: T1, human GREM1 (hGREM1-His; SEQ ID NO: 595) (human, UniProt O60565 25-184)
T1 construct: also called biotin-hGREM1-His; recombinant human GREM1 protein
T1 sequence: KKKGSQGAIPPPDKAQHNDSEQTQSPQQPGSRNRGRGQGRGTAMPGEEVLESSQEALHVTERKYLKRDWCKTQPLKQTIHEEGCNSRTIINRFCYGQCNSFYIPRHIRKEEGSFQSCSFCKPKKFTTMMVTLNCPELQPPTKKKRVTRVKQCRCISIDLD
Experiment: competition ELISA, 100 pM biotin-hGREM1-His on plate-coated hBMP4
Protocol: Data were analyzed using a sigmoidal dose-response model within Prism™ software. […] The absorbance values of the wells containing the highest concentration for each antibody were used to determine the percent maximum blocking.

IC50: 7.2 pM
B1: H4H6243P (antibody, human IgG4, V domains shown)
VH: QVQLVQSGAEVKKPGASVKVSCKVSGYTLTELSMHWVRQAPGKGLEWMGGFDPEDGETIYAQKFQDRVTMTEDTSTDTAYMELSSLRSEDTAVYYCVTDDYEILPEYPYNMDVWGQGTTVTVSS
VL: DIQMTQSPSSLSASVGDRVTITCRASQSISTYLNWYQQKPGKAPKLLIYAASSLQSGVPSRFSGSGSGTDFTLTIRSLQPEDFATYYCQQSHITPFTFGPGTKVDIK
notes: H4H = human IgG4 Fc
